This is an account of results in paper PMC2575619, “Novel splice variants derived from the receptor tyrosine kinase superfamily are potential therapeutics for rheumatoid arthritis” (Arthritis Research & Therapy, 2008).

The target of one assay is angiopoietin-1 (UniProt Q15389). Description: ELISA; Ang-1 coated on 96-well plates at 4 μg/ml in PBS; purified Tie1-751(6His) applied, 1.5 hours at room temperature, three rinses in PBS/0.05% Tween-20; detected with biotin-labeled extracellular domain-specific antibody. A general note: ELISA stands for enzyme-linked immunosorbent assay.
The target in assay [1] is T1, recombinant human VEGFR3/Fc chimera (human, UniProt P35916 25-775).
T1 construct: Human VEGF receptor type 3, the soluble part fused to Fc; Commercial chimera, probably the extracellular domain on human IgG1 Fc; also called soluble VEGFR3/Fc chimera; source: bought: R&D Systems
T1 sequence (looked up): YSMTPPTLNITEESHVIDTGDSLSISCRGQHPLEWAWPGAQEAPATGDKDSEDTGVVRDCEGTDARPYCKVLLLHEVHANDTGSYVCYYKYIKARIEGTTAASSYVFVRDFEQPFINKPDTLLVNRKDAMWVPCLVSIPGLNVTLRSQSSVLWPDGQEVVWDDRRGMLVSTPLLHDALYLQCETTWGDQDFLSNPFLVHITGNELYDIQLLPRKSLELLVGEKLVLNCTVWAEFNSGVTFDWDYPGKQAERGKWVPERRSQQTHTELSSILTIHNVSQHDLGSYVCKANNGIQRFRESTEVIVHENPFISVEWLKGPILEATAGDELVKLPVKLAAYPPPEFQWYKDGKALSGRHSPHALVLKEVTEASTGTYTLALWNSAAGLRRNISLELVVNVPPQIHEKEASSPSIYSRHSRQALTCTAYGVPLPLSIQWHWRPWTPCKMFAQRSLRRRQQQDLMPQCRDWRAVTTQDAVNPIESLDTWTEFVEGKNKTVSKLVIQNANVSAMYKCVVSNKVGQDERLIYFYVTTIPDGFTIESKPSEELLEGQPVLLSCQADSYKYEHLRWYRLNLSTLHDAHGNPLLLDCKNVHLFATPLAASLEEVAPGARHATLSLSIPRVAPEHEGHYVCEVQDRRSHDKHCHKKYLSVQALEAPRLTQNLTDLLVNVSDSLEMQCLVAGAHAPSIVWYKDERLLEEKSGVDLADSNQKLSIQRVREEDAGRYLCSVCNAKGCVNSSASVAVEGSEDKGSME
Description: co-IP; competition in the solution binding of VEGF-D to VEGFR3-765-Myc: fivefold molar excess of recombinant human VEGFR3/Fc or VEGFR1/Fc chimera; immunoprecipitation with anti-VEGF-D, blot with anti-Myc. The conditions noted are these: both partners purified.

Chain of angiopoietin-1 (Q15389 16-498): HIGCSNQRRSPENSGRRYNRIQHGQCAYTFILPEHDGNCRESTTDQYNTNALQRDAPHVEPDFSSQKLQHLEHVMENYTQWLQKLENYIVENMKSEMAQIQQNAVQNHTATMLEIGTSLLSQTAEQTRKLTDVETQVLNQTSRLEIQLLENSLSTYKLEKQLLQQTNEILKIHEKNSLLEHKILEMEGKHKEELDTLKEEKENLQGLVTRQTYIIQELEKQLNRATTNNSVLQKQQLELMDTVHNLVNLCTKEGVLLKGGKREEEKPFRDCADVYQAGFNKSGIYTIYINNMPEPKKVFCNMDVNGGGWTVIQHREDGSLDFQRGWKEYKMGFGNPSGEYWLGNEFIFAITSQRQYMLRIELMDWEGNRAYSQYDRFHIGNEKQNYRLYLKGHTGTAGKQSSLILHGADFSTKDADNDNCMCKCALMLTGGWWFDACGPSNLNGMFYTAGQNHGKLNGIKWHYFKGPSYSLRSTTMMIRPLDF

In the case of “Tie1-751(6His) (from UniProt P35590-1 22-740) (receptor)”, the Kd with angiopoietin-1 is 89 nM.

B1: VEGF-D (ligand, human, UniProt O43915 89-205, looked up)
chain: FAATFYDIETLKVIDEEWQRTQCSPRETCVEVASELGKSTNTFFKPPCVNVFRCGGCCNEESLICMNTSTSYISKQLFEISVPLTSVPELVPVKVANHTGCKCLPTAPRHPYSIIRR
notes: Human VEGF-D, bought recombinant protein; source: bought: R&D Systems
In the case of B1, in assay [1], the binding result is recorded as “binds”.

The term Kd denotes the constant that tells how readily two partners part at equilibrium. The low end stands for a tighter complex, the high end for a looser complex.
